Patent US20210147829A1, “VARIANT NUCLEOTIDE LIBRARY” (The University of Manchester, priority 2017, published 2021)

How the values were obtained:
[1] = Liquid phase kinetic assay of purified MAO-N variants, substrate N-amylamine; assay type: biochemical
Description: (§1) Selected variants were overexpressed by BL21 (DE3) E. coli strain in 700 mL of LB medium with 100 μg mL^−1 ampicillin. 0.5 mM of IPTG was introduced to the culture when OD600 reached 0.6 and the culture was incubated at 25° C., 180 rpm. Cells were harvested after 16-20 hours and purified using 5 mL Histrap FF crude column (GE Healthcare) with an AKTA Explorer 100 protein purification system as described (55).
(§2) A range of amine stock solutions including α-methylbenzylamine, N-amylamine, butylamine, benzylamine or cyclohexylamine (all from Sigma) were prepared in 0.1 M potassium phosphate pH 7.7. The final concentration range of the substrate was between 0.5 mM to 100 mM. A colourimetric assay solution was made up by dissolving Pyrogallol red (0.3 mM final concentration) in 0.1 M potassium phosphate, pH 7.7. The assay was conducted by combining 35 μL of substrate solution, 50 μL of Pyrogallol red solution and 5 μL of horseradish peroxidase (1 mg mL^−1) in a flat bottom 96-well plate and started by adding 110 μL of purified MAO-N. Assay progress was monitored at 550 nm at 25° C. in a Molecular Devices Spectramex M2 plate reader. The data were analysed using Prism7 (GraphPad) which was also used to calculate kinetic parameters such as kcat, km and Vmax.

[2] = Liquid phase kinetic assay of purified MAO-N variants, substrate butylamine; assay type: biochemical
Description: as §1, §2

[3] = Liquid phase kinetic assay of purified MAO-N variants, substrate benzylamine; assay type: biochemical
Description: as §1, §2

[4] = MAO-N variant activity to native primary amine substrates (taken together); assay type: biochemical; conditions: range over native substrates
Description: as §1, §2

[5] = cited from earlier work; for kcat, substrate AMBA: Table 3
[6] = Liquid phase kinetic assay of purified MAO-N variants, substrate α-methylbenzylamine; assay type: biochemical; conditions: Table 4; kcat for α-methylbenzylamine
Description: as §1, §2

[7] = Table 4, α-methylbenzylamine, Reference {Alexeeva 2002}

Row | Molecule | kcat, substrate AA ([1]; Table 3) | kcat N-amylamine (AA) ([1]; Table 5) | kcat, substrate BTA ([2]; Table 3) | kcat Butylamine (BTA) ([2]; Table 5) | kcat, substrate BZA ([3]; Table 3) | kcat Benzylamine (BZA) ([3]; Table 5) | kcat for several primary amine substrates ('wild type speed') [4] | kcat, substrate AMBA ([5]; Reference {Alexeeva 2002}) | kcat [5, 7] | kcat towards α-MBA ([5]; wild type, literature value) | Improvement over wild type [6] | Km [5, 7]
1 | WT: Wild type monoamine oxidase-N (MAO-N, A. niger), an amine-oxidising biocatalyst (protein, UniProt P46882 1-495, looked up) Monoamine oxidase N: MTSRDGYQWTPETGLTQGVPSLGVISPPTNIEDTDKDGPWDVIVIGGGYCGLTATRDLTVAGFKTLLLEARDRIGGRSWSSNIDGYPYEMGGTWVHWHQSHVWREITRYKMHNALSPSFNFSRGVNHFQLRTNPTTSTYMTHEAEDELLRSALHKFTNVDGTNGRTVLPFPHDMFYVPEFRKYDEMSYSERIDQIRDELSLNERSSLEAFILLCSGGTLENSSFGEFLHWWAMSGYTYQGCMDCLISYKFKDGQSAFARRFWEEAAGTGRLGYVFGCPVRSVVNERDAARVTARDGREFAAKRLVCTIPLNVLSTIQFSPALSTERISAMQAGHVNMCTKVHAEVDNKDMRSWTGIAYPFNKLCYAIGDGTTPAGNTHLVCFGTDANHIQPDEDVRETLKAVGQLAPGTFGVKRLVFHNWVKDEFAKGAWFFSRPGMVSECLQGLREKHRGVVFANSDWALGWRSFIDGAIEEGTRAARVVLEELGTKREVKARL | 6.45 s⁻¹ | 6.45 s⁻¹ | 6.57 s⁻¹ | 6.57 s⁻¹ | 4.37 s⁻¹ | 4.37 s⁻¹ | 4.37 to 6.57 s⁻¹ | 0.00283 s⁻¹ | 0.00283 s⁻¹ | 0.00283 s⁻¹ | – | –
2 | D1 N336S: MAO-N variant D1 with mutation N336S, Reference {Alexeeva 2002} (protein, UniProt P46882 1-495, looked up, variant N336S) Monoamine oxidase N: MTSRDGYQWTPETGLTQGVPSLGVISPPTNIEDTDKDGPWDVIVIGGGYCGLTATRDLTVAGFKTLLLEARDRIGGRSWSSNIDGYPYEMGGTWVHWHQSHVWREITRYKMHNALSPSFNFSRGVNHFQLRTNPTTSTYMTHEAEDELLRSALHKFTNVDGTNGRTVLPFPHDMFYVPEFRKYDEMSYSERIDQIRDELSLNERSSLEAFILLCSGGTLENSSFGEFLHWWAMSGYTYQGCMDCLISYKFKDGQSAFARRFWEEAAGTGRLGYVFGCPVRSVVNERDAARVTARDGREFAAKRLVCTIPLNVLSTIQFSPALSTERISAMQAGHVSMCTKVHAEVDNKDMRSWTGIAYPFNKLCYAIGDGTTPAGNTHLVCFGTDANHIQPDEDVRETLKAVGQLAPGTFGVKRLVFHNWVKDEFAKGAWFFSRPGMVSECLQGLREKHRGVVFANSDWALGWRSFIDGAIEEGTRAARVVLEELGTKREVKARL | – | – | – | – | – | – | – | 0.133 s⁻¹ | 0.133 s⁻¹ | – | 40-fold | 400 µM
